Source: paper PMC9966940, “Evidence and Metabolic Implications for a New Non-Canonical Role of Cu-Zn Superoxide Dismutase” (International Journal of Molecular Sciences, 2023)

Target: SOD1-His ( (human or mouse cDNA cloned), UniProt P00441 1-154)
Assay: cell-based or functional assay

Chain of SOD1-His (P00441 whole entry): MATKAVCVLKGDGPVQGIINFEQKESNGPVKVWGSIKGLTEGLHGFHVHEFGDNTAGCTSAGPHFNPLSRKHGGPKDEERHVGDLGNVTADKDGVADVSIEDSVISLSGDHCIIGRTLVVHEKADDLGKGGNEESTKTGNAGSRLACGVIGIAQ

B1: YWHAZ-His (natural protein, UniProt P63104 1-245, looked up)
chain: MDKNELVQKAKLAEQAERYDDMAACMKSVTEQGAELSNEERNLLSVAYKNVVGARRSSWRVVSSIEQKTEGAEKKQQMAREYREKIETELRDICNDVLSLLEKFLIPNASQAESKVFYLKMKGDYYRYLAEVAAGDDKKGIVDQSQQAYQEAFEISKKEMQPTHPIRLGLALNFSVFYYEILNSPEKACSLAKTAFDEAIAELDTLSEESYKDSTLIMQLLRDNLTLWTSDTQGDEAEAGEGGEN
- SOD1 activity of purified SOD1 after 15 h incubation with purified YWHAZ at ratios 1:1 and 1:3 (1 SOD1 to 3 YWHAZ protein amount); value at 1:3: ~2 fold
